Key:
[1] = molecular target: T1, hPD1/Fc of human IgG1 (fluorescently labelled) (human, UniProt Q15116 25-167, limits assumed, labelled with Alexa Fluor 488 (Example 2); printed as hPD-1/hFc-FITC in Example 5.5); test: flow cytometry blocking assay: Alexa Fluor 488 labelled hPD1/Fc on SPC-A1-PDL1 cells
T1 construct: also called hPD-1/hFc-FITC; 荧光标记的PD1(Dimeric); not shown: Fc of human IgG1

[2] = molecular target: T2, Human PD1/PDCD1 Protein Biotinylated (Sinobiological, Cat.No.10377-H03H-B) (human, UniProt Q15116 25-167, biotinylated); test: BLI (Octet Red96), biotinylated PD-1 on SA sensor, antibody in solution from 50 nM in two-fold dilutions
T2 construct: Bought reagent; also called 抗原; 人PD-1
T2 sequence (Q15116 25-167 limits assumed): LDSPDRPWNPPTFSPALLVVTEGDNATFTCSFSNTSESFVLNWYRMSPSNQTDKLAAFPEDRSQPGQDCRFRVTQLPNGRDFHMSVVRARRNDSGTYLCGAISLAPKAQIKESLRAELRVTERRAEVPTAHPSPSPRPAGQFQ

T1 sequence (Q15116 25-167 limits assumed): as above

Row | binding result [1] | Kd [2] [pM] | koff [2] [s⁻¹] | kon [2] [M⁻¹ s⁻¹] | Binder
1 | binds | – | – | – | UM1-56 (antibody, mouse IgG1, V domains shown, Mouse hybridoma antibody purified on Protein G; primers were designed on mouse IgG1 and kappa; also called 鼠源PD-1单克隆抗体UM1-56) VH: EVKLVESGGGLVKPGGSLKLSCAASGFTFSTYGMSWVRQTPEKRLEWVATISGGGRYTYYPDSVKGRFTISRDNAKNNLYLQMSSLRSEDTALYYCARQKGTTWFAHWGQGTLVTVSA VL: not shown
2 | – | 3.34 | 5.43e-06 | 1.63e+06 | hUM1-30 (antibody, human IgG4 S228P, kappa, V domains shown, Humanised from UM1-56; also called 人源化PD-1单克隆抗体(hUM1-30); UM1-56H-1 + UM1-56K-2) VH: EVQLVESGGGLVQPGGSLRLSCAASGFTFSTYGMSWVRQAPGKGLEWVSTISGGGRYTYYPDSVKGRFTISRDNSKNTLYLQMNSLRAEDTAVYYCARQKGTTWFAHWGQGTLVTVSS VL: DIQMTQSPSSLSASVGDRVTITCRASESVDDNGISFMNWFQQKPGKAPKLLIYAASNQGSGVPSRFSGSGSGTDFTLTISSLQPEDFATYYCQQSKEVPWTFGQGTKVEIKR

From patent publication CN112225809A (FUZHOU CHUANGFANG PHARMACEUTICAL TECH CO LTD, dated 2021)
